Laboratory results: patent publication US20180193423A1 (LONGEVITY BIOTECH, published 2018)
Primed or numbered codes have the meaning given here. Where no end group is shown, it is not given here. [ ]: non-standard residue; d: D form. APC″ = 3-aminopyrrolidine-4-carboxylic acid (cyclic β-amino acid); ACPC″ = 2-aminocyclopentanecarboxylic acid (x in the sequences); APC = 3-aminopyrrolidine-4-carboxylic acid; ACPC = 2-aminocyclopentanecarboxylic acid; β3hY = N[C@H](CC(=O)O)Cc1ccc(O)cc1; β3hR = N=C(N)NCCC[C@H](N)CC(=O)O; β3hT = C[C@@H](O)[C@H](N)CC(=O)O; β3hQ = NC(=O)CC[C@H](N)CC(=O)O; β3hN = NC(=O)C[C@H](N)CC(=O)O; β3hL = CC(C)C[C@H](N)CC(=O)O; β3hK = NCCCC[C@H](N)CC(=O)O; β3hV = CC(C)[C@H](N)CC(=O)O; Aib = CC(C)(N)C(=O)O; βAla = NCCC(=O)O

T1: VPAC1 receptor (UniProt P32241 31-457, limits assumed)
T1 sequence (looked up): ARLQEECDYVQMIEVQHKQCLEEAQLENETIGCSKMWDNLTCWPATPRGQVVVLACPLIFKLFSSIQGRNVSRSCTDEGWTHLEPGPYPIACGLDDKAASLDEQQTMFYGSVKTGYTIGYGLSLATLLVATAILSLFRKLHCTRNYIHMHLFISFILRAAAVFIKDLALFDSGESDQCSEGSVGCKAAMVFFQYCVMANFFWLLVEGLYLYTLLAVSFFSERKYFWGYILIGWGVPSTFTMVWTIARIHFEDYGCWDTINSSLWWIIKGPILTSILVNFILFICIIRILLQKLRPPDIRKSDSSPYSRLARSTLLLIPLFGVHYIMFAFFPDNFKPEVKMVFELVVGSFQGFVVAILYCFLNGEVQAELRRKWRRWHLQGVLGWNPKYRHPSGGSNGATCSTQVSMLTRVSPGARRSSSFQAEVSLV

T2: VPAC2 receptor (UniProt P41587 24-438, limits assumed)
T2 sequence (looked up): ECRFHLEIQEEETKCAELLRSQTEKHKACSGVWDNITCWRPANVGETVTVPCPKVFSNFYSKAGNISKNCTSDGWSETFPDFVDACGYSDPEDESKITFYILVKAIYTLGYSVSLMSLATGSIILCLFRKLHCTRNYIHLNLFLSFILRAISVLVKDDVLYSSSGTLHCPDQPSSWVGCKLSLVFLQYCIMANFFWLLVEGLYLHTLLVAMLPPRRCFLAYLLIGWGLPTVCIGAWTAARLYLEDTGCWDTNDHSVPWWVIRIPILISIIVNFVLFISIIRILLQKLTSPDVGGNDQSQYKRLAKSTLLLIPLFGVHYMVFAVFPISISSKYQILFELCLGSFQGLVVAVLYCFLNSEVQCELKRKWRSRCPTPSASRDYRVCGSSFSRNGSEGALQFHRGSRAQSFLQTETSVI

B1: LBT-V219 (peptide)
peptide: Ac-H[ACPC″]DA[ACPC″]FTE[ACPC″][β3hY]TKLR[β3hK]QLAA[APC″]KY[ACPC″]NDL[β3hK]KG[βAla]T
modifications: not fully specified (C-terminus); printed as Ac-HxDAxFTExyTKLRkQLAAzKYxNDLkKGgT
B2: LBT-V220 (peptide)
peptide: Ac-HSDAVFTENYTKLRKQ[ACPC″]AAK[APC″]YL[ACPC″]DLK[β3hK]GGT
modifications: not fully specified (C-terminus); printed as Ac-HSDAVFTENYTKLRKQxAAKzYLxDLKkGGT
B3: LBT-V210 (peptide)
peptide: Ac-H[ACPC]DA[β3hV]FTENYTKLRKQLAA[APC]KY[ACPC]NDL[β3hK]KG[βAla]T
modifications: not fully specified (C-terminus); printed as Ac-HxDAvFTENYTKLRKQLAAzKYxNDLkKGgT
B4: LBT-V214 (peptide)
peptide: Ac-H[ACPC″]DA[β3hV]FTENYTKL[β3hR]KQLAA[APC″]KY[ACPC″]NDL[β3hK]KG[βAla]T
modifications: not fully specified (C-terminus); printed as Ac-HxDAvFTENYTKLrKQLAAzKYxNDLkKGgT
B5: LBT-V201 (peptide)
peptide: Ac-HSDAVFTENYTKLRKQLA[ACPC]KKY[ACPC]ND[β3hL]KKG[βAla]T
modifications: not fully specified (C-terminus); printed as Ac-HSDAVFTENYTKLRKQLAxKKYxNDlKKGgT
B6: LBT-V212 (peptide)
peptide: Ac-H[ACPC]DA[β3hV]FTENYTKLRK[β3hQ]LAA[APC]KY[ACPC]NDL[β3hK]KG[βAla]T
modifications: not fully specified (C-terminus); printed as Ac-HxDAvFTENYTKLRKqLAAzKYxNDLkKGgT
B7: LBT-V217 (peptide)
peptide: Ac-H[ACPC″]DA[ACPC″]FTE[ACPC″][β3hY]TKLRKQ[β3hL]AA[APC″]KY[ACPC″]NDL[β3hK]KG[βAla]T
modifications: not fully specified (C-terminus); printed as Ac-HxDAxFTExyTKLRKQlAAzKYxNDLkKGgT
B8: LBT-V218 (peptide)
peptide: Ac-H[ACPC″]DA[ACPC″]FTE[ACPC″][β3hY]TKLRK[β3hQ]LAA[APC″]KY[ACPC″]NDL[β3hK]KG[βAla]T
modifications: not fully specified (C-terminus); printed as Ac-HxDAxFTExyTKLRKqLAAzKYxNDLkKGgT
B9: LBT-V211 (peptide)
peptide: Ac-H[ACPC]DA[β3hV]FTENYTKLRKQ[β3hL]AA[APC]KY[ACPC]NDL[β3hK]KG[βAla]T
modifications: not fully specified (C-terminus); printed as Ac-HxDAvFTENYTKLRKQlAAzKYxNDLkKGgT
B10: LBT-V205 (peptide)
peptide: Ac-H[Aib]DA[β3hV]FTENYTKLRKQLAA[APC]KY[ACPC]NDL[β3hK]KG[βAla]T
modifications: not fully specified (C-terminus); printed as Ac-HBDAvFTENYTKLRKQLAAzKYxNDLkKGgT
B11: LBT-V206 (peptide)
peptide: Ac-H[Aib]DA[β3hV]FTE[β3hN]YTKLRKQLAA[APC]KY[ACPC]NDL[β3hK]KG[βAla]T
modifications: not fully specified (C-terminus); printed as Ac-HBDAvFTEnYTKLRKQLAAzKYxNDLkKGgT
B12: LBT-V213 (peptide)
peptide: Ac-H[ACPC]DA[β3hV]FTENYTKLR[β3hK]QLAA[APC]KY[ACPC]NDL[β3hK]KG[βAla]T
modifications: not fully specified (C-terminus); printed as Ac-HxDAvFTENYTKLRkQLAAzKYxNDLkKGgT
B13: LBT-V204 (peptide)
peptide: Ac-H[Aib]DAVFTENYTKLRKQLAA[APC]KY[ACPC]NDL[β3hK]KG[βAla]T
modifications: not fully specified (C-terminus); printed as Ac-HBDAVFTENYTKLRKQLAAzKYxNDLkKGgT
B14: LBT-V216 (peptide)
peptide: Ac-H[ACPC″]DA[ACPC″]FTE[β3hN][β3hY]TKLRKQLAA[APC″]KY[ACPC″]NDL[β3hK]KG[βAla]T
modifications: not fully specified (C-terminus); printed as Ac-HxDAxFTEnyTKLRKQLAAzKYxNDLkKGgT
B15: LBT-V215 (peptide)
peptide: Ac-H[ACPC″]DA[β3hV]FTENYTK[β3hL]RKQLAA[APC″]KY[ACPC″]NDL[β3hK]KG[βAla]T
modifications: not fully specified (C-terminus); printed as Ac-HxDAvFTENYTKlRKQLAAzKYxNDLkKGgT
B16: LBT-V207 (peptide)
peptide: Ac-H[ACPC]DAVFTENYTKLRKQLAA[APC]KY[ACPC]NDL[β3hK]KG[βAla]T
modifications: not fully specified (C-terminus); printed as Ac-HxDAVFTENYTKLRKQLAAzKYxNDLkKGgT
B17: LBT-V208 (peptide)
peptide: Ac-H[ACPC]DA[ACPC]FTENYTKLRKQLAA[APC]KY[ACPC]NDL[β3hK]KG[βAla]T
modifications: not fully specified (C-terminus); printed as Ac-HxDAxFTENYTKLRKQLAAzKYxNDLkKGgT
B18: LBT-V202 (peptide)
peptide: Ac-HSDAVFTENYTKLRKQLAA[APC]KY[ACPC]NDL[β3hK]KG[βAla]T
modifications: not fully specified (C-terminus); printed as Ac-HSDAVFTENYTKLRKQLAAzKYxNDLkKGgT
B19: LBT-V203 (peptide)
peptide: Ac-HSDAVFTENYTKLRKQ[ACPC]AA[APC]KYL[ACPC]DL[β3hK]KGGT
modifications: not fully specified (C-terminus); printed as Ac-HSDAVFTENYTKLRKQxAAzKYLxDLkKGGT
B20: LBT-V221 (peptide)
peptide: Ac-HSDAVFTDNYTRLRKQ[ACPC″]AAK[APC″]YL[ACPC″]SIK[β3hN]KRY
modifications: not fully specified (C-terminus); printed as Ac-HSDAVFTDNYTRLRKQxAAKzYLxSIKnKRY
B21: LBT-V209 (peptide)
peptide: Ac-H[ACPC]DA[ACPC]FTE[ACPC]YTKLRKQLAA[APC]KY[ACPC]NDL[β3hK]KG[βAla]T
modifications: not fully specified (C-terminus); printed as Ac-HxDAxFTExYTKLRKQLAAzKYxNDLkKGgT
B22: LBT-V102 (peptide)
peptide: H[ACPC]DAVFTDNY[β3hT]RLR[β3hK]QLA[β3hV]KKY[β3hL]NAI[β3hL]N
modifications: not fully specified (C-terminus); printed as HxDAVFTDNYtRLRkQLAvKKYlNAIlN

Biological target: T1, VPAC1 receptor
Assay: cell-based or functional assay

Binder	EC 50 vpac1 (Molar), cell-based cAMP assay
B1	461 nM
B2	9.51 nM
B3	1420 nM
B4	> 1000 nM
B5	9.09 nM
B6	1530 nM
B7	785 nM
B8	> 1000 nM
B9	> 1000 nM
B10	> 1000 nM
B11	> 1000 nM
B12	293 nM
B13	516 nM
B14	932 nM
B15	1420 nM
B16	> 1000 nM
B17	133 nM
B18	> 1000 nM
B19	218 nM
B20	0.195 nM
B21	> 1000 nM

Biological target: T2, VPAC2 receptor
Assay: cell-based or functional assay

Binder	EC50 vpac2 (Molar), cell-based cAMP assay
B1	> 1000 nM
B2	0.422 nM
B3	0.859 nM
B4	1.37 nM
B5	104 nM
B6	3.52 nM
B7	1.17 nM
B8	1.02 nM
B9	1.26 nM
B10	0.816 nM
B11	3.47 nM
B12	1.27 nM
B13	0.529 nM
B14	95.6 nM
B15	1.33 nM
B16	0.593 nM
B17	0.646 nM
B18	0.963 nM
B19	0.18 nM
B20	0.0784 nM
B21	5.58 nM

Biological target: T1, VPAC1 receptor
Assay: cell-based or functional assay
Remark: another data set of the same source

Binder	EC 50 vpac1 (Molar), cell-based cAMP assay
B22	5.66 nM

Biological target: T2, VPAC2 receptor
Assay: cell-based or functional assay
Remark: another data set of the same source

Binder	EC50 vpac2 (Molar), cell-based cAMP assay
B22	4900 nM
